The source of these data is patent US20200115464A1.

The target of experiment [1] is FcR on U937 cells. Kind of experiment: cell-based or functional assay.
In experiment [2] the target is human CD3 on Jurkat cells (CD3+, CD20- human T-cell line) (human) (UniProt P07766). Kind of experiment: FACS, serially diluted antibody on Jurkat cells (CD3+, CD20-).
For experiment [3], the target named is cynomolgus CD3 on T cells of cynomolgus PBMCs (mkT cells) (cynomolgus monkey). Description: FACS, serially diluted antibody on cynomolgus PBMC T cells (mkT cells). On the technique in general: A flow cytometer gives signals particle by particle.
For experiment [4], the target named is His-tagged cynomolgus FcγRIIIA (cynomolgus monkey) (UniProt Q8SPW2). Kind of experiment: SPR steady-state, His-captured FcγR, antibody injected, 25 C.
Experiment [5] concerns the target His-tagged human FcγRIIIB (human) (UniProt O75015). The experiment is described as above.
Experiment [6] deals with His-tagged cynomolgus FcγRIIB (cynomolgus monkey). The experiment is described as above.
The target of experiment [7] is His-tagged human FcγRIIA (H131) (human) (UniProt P12318). Described as above.
Experiment [8] addresses His-tagged human FcγRIIIA (F176) (human) (UniProt P08637). The description is as above.
The target of experiment [9] is His-tagged human FcγRIIA (R131) (human) (UniProt P12318). The description is as above.
In experiment [10] the target is His-tagged human FcγRIIIA (V176) (human) (UniProt P08637). The experiment is described as above.
For experiment [11], the target named is His-tagged cynomolgus FcγRIIA (cynomolgus monkey). The experiment is described as above.
The target of experiment [12] is His-tagged human FcγRI (human) (UniProt P12314). Description: SPR (Biacore T200), His-captured human FcγRI, antibody injected, 25 C. (Surface plasmon resonance follows binding to a sensor surface in real time, without labels.)
Experiment [13] addresses His-tagged human FcγRIIB (human) (UniProt P31994). Description: SPR steady-state, His-captured FcγR, antibody injected, 25 C.

Chain of His-tagged human FcγRI (human) (P12314 16-288 limits assumed): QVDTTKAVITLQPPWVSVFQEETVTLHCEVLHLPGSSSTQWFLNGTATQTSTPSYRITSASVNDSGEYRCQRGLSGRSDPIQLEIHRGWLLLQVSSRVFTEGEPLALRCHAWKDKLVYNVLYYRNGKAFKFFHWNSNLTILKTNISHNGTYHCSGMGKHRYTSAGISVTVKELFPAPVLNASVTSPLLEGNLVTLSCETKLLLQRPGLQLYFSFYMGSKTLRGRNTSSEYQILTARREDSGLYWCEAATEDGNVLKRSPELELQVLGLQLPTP
Chain of His-tagged human FcγRIIIA (F176) (human) (P08637 17-208 limits assumed): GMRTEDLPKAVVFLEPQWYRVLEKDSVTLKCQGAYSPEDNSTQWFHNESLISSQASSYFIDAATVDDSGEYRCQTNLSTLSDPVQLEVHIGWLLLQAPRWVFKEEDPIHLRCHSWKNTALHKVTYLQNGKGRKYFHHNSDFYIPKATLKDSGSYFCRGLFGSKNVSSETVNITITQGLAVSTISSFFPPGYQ
Chain of His-tagged cynomolgus FcγRIIIA (cynomolgus monkey) (Q8SPW2 17-208 limits assumed): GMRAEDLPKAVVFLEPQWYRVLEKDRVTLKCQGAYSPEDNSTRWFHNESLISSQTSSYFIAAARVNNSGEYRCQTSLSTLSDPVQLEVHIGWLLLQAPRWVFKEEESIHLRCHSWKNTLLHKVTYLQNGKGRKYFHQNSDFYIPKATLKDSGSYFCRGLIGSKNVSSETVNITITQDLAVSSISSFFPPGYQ
Chain of His-tagged human FcγRIIA (R131) (human) (P12318 36-218 H167R limits assumed): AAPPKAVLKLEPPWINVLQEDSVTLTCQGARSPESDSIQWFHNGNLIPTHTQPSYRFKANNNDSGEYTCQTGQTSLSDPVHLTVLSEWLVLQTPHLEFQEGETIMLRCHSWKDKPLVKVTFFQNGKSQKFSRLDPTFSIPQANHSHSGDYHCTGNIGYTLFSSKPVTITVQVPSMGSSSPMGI
Chain of His-tagged human FcγRIIA (H131) (human) (P12318 36-218 limits assumed): as the sequence (P12318 36-218 H167R limits assumed) above, with R132H counted along it
Chain of His-tagged human FcγRIIIB (human) (O75015 17-200 limits assumed): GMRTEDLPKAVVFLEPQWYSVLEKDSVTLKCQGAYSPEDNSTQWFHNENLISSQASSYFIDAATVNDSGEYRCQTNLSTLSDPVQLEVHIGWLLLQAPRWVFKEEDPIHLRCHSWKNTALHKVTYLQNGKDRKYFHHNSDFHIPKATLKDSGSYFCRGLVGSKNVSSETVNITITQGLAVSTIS
Chain of His-tagged human FcγRIIIA (V176) (human) (P08637 17-208 F176V limits assumed): as the sequence (P08637 17-208 limits assumed) above, with F160V counted along it
Chain of His-tagged human FcγRIIB (human) (P31994 46-217 limits assumed): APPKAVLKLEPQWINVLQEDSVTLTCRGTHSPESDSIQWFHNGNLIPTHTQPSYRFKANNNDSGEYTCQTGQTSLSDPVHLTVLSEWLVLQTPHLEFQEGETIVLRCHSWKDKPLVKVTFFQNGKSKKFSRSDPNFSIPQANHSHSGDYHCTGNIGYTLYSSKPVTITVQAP

A word on the EC50: it is the concentration that produces a half-maximal response. The low end stands for a more potent agent, the high end for a less potent agent. On to “Control Antibody 1: monoclonal antibody OKT-3 against human T-cell surface antigens”, for which the U937 Cytotoxicity Human T-cells [M] (EC50, calcein release) in experiment [1] is 3.04e-12 M. Further, the EC50 in experiment [2] was found to be 0.196 nM.
Consider “Control Antibody 2: antibody SP34 reactive against the epsilon chain of the T3 complex on human T lymphocyte cells”, for which, in experiment [3], the 50% effective concentration (EC50) is 0.0703 nM.
The term Kd denotes the free concentration of one partner at which half of the binding sites on the other are occupied at equilibrium, for simple one-to-one binding. A low value points to tighter binding. As usually defined, the koff is the first-order rate constant of dissociation. Lower therefore signals a long-lived complex. Broadly, the kon is the rate constant with which the complex forms. Regarding wt-IgG1 Isotype Control (antibody), the Kd turned out to be 6 nM in experiment [4]; 23 nM in experiment [5]; 42 nM in experiment [6]; 11 nM in experiment [7]; 13 nM in [8]; 20 nM in experiment [9]. Moreover, the Kd came to 15 nM in experiment [10], 42 nM in experiment [11] and 4.3 nM in experiment [12]. In [12], this substance displayed a T1/2 of 15 min. The koff in experiment [12] worked out at 0.000748 s⁻¹. The same substance registered a kon in experiment [12] of 174000 M⁻¹ s⁻¹.
For wt-IgG4 CPPC Isotype Control (antibody), the Kd worked out at 58 nM in experiment [4]; 96 nM in experiment [6]; 120 nM in experiment [7]; 98 nM in experiment [13]; 260 nM in [8]; 100 nM in experiment [9]. The figures for the Kd in experiment [11] and in experiment [12] were 193 nM and 13.9 nM, respectively. Further, in experiment [12], the T1/2 came to 5 min.
